From the RNAGym collection of RNA variant scans (doi:10.1073/pnas.2313332121) come the findings set out here.

B1: TPR 5TU (parent)
chain: GGAUCUUCUCGAUCUAACAAAAAAGACAAAUCUGCCACAAAGCUUGAGAGCAUCUUCGGAUGCAGAGGCGGCAGCCUUCGGUGGCGCGAUAGCGCCAACGUUCUCAACUAUGACACGCAAAACGCGUGCUCCGUUGAAUGGAGUUUAUCAUG

Variants at the floor of the assay were thinned out.

Variants of B1 are the subject of this data set. The data set is described as follows: polymerase ribozyme fitness, log enrichment relative to wild type (log ratio); higher = more active; in vitro selection for triplet polymerase activity. Put shortly:
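A single round of triplicate in vitro selection, including frozen incubation at −7 °C, was applied to PCR-built, transcribed mutant libraries of each subunit of a heterodimeric triplet polymerase ribozyme. Illumina sequencing of input and output libraries retained genotypes with ≥10 input reads and ≥1 read per output. Fitness is the base-2 logarithm of genotype enrichment divided by wild-type enrichment, from inverse-variance-weighted replicate averages.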
Consider GGAUCUUCUCGAUGUAACAAAAAAGACAAAUGUGCCACAAAGCUUGAGAGCAUCUUCGGAUGCAGAGGCGGCAGCCUUCGGUGGCGCGAUAGCGCCAACGUUCUCAACUAUGACACGCAAAACGCGUGCUCCGUUGAAUGGAGUUUAUCAUG [C14G C32G], for which the “polymerase ribozyme fitness (log ratio)” value was -4.17. As for GGAUCUUCUCGAUGUAAUAAAAAAGACAAAUCUGCCACAAAGCUUGAGAGCAUCUUCGGAUGCAGAGGCGGCAGCCUUCGGUGGCGCGAUACCGCCAACGUUCUCAACUAUGACACGCAAAACGCGUGCUCCGUUGAAUGGAGUUUAUCAUG [C14G C18U G92C], the “polymerase ribozyme fitness (log ratio)” value is -2.89. In the case of GGAUCUUCUCGAUGUAACAAAAAAGACAAAUCUGCCACAAAGCUUGAGAGCAUCUUCGGAUGCAGAGGCGGCAGCCUUCGGUGGCGCGAUUGCGCCGACGUUCUCAACUAUGACACGCAAAACGCGUGCUCCGUUGAAUGGAGUUUAUCAUG [C14G A91U A97G], the “polymerase ribozyme fitness (log ratio)” value is -3.96. Under GGAUCUUCUCGAUGUAACAAAAAAGACAAAUCUGCCACAAAGCUUGAGAGCAUCUUCGGAUGCAGAGGCGGCAGCCUUCGGUGGCGCGUUAGCGCCAAAGUUCUCACCUAUGACACGCAAAACGCGUGCUCCGUUGAAUGGAGUUUAUCAUG [C14G A89U C99A A107C] stands at most -4.2; under GGAUCUUCUCGAUGUAACAAAAAAGACAAAUCUGCCACAUAGCUUGAGAGCAUCUUCGGAUGCAGAGGCGGCGGCCUUCGGUGGCGCGAUAGCGCCAACGUUCCCAACUAUGACACGCAAAACGCGUGCUCCGUUGAAUGGAGUUUAUCAUG [C14G A40U A73G U104C], at most -4.2. As to GGAUCUUCUCGAUGUAACAAAAAAGACAAAUCUGCCACAAAGCUUGAGAGUAUCUUCGGAAGCAGAGGCGGCAGCCUUCGGUGGCGCGAUAGCGCCAACGUUCUCAACUAUGACACGCAAAACGCGUGCUCCGUUGAAUGGAGUUUAUCAUG [C14G C51U U61A], the “polymerase ribozyme fitness (log ratio)” value is -4.06.

On to GGAUCUUCUCGAUGUAACAAAAAAGACAAAUCUGCCACAUAGUUUAAGACCAUCUUCGGAUGCAGAGGCGGCAGCCUUCGGUGGUGCGAUAGCGCCAACGUUCUCAACUAUAACACGCAAAACGCGUGCUCCGUUGAAUGGAGUUUAUCAUG [C14G A40U C43U G46A G50C C85U G112A], for which the “polymerase ribozyme fitness (log ratio)” value was at most -4.2. In the case of GGAUCUUCUCGAUGUAACAAAAAAGACAAAUCUGUCACAAAGCUUGAGAGCAUCUUCGGAUGCAGAGGCGGCAGCCUUCGGUGGCGCGAUAGCGUCAACGAUCUCAACUAUGACACGCAAAACGCGUGCUCCGUUGAAUGGAGUUUAUCAUG [C14G C35U C95U U101A], the “polymerase ribozyme fitness (log ratio)” value was -3.82.

Turning to GGAUCUUCUCGAUGUAACAAAAAAGACAAAUCUGCCACAAAGCUUGAGAGCAUCUUCGGAUGCAGAGGCGGCAGCCUUCGGUGGCGCGAUAGCGCCUGCGUUCUCAACUAUGACACGCAAAACGCGUGCUCCGUUGAAUGGAGUUUAUCAUG [C14G A97U A98G], the “polymerase ribozyme fitness (log ratio)” value is -2.74. Consider GGAUCUUCUCGAUGUAACAAAAAAGACAAAUCUGCCACAAAGCUUGAGAGCAUCUUCGGAUGCAGAGGCGGCAGCCUUCGGUGGCGCGAUAGCGCCAACGUUCUCAACUAUGACACGCAAAACGCGUGCUCCGUUGUAUGGAGUUUAUCAUG [C14G A137U], for which the “polymerase ribozyme fitness (log ratio)” value is at most -4.2. With GGAUCUUCUCGAUGUAACAAAAAAGACAAAUUUGCCACAAAGCUUGAAAGCAUCUUCGGAUGCAGAGGCGGCAGCCUUCGGUGGCGCGAUAGCGCCAACGUUUUCAACUAUGACACGCAAAACGCGCGCUCCGUUGAAUGGAGUUUAUCAUG [C14G C32U G48A C103U U127C] the figure was at most -4.2; with GGAUCUUCUCGAUGUAACAAAAAAGAUAAAUCUGCCACAAAGCUUGAAAGCAUCUUAGGUUGCAGAGGCGGCAGCCUUCGGUGGCGCCAUAGCGCCAACGUUCUCUACUAUGACACGCAAAACGCGUGCUCCGUUGAAUGGAGUUUAUCAUG [C14G C27U G48A C57A A60U G88C A106U], at most -4.2; with GGAUCUUCUCGAUGUAACAAAAAAGACAAAUCUGCCACAAAGCUUGAGAGCAUCUUCGGAUGCAGAGGCGGCAGCCUUCGGUGGCGCGAUAGCGCCAACGUUCUCCACUAUGACACGAAAAAUGCGUGCUCCGUUGAAUGGAGUUUAUCAUG [C14G A106C C118A C123U], -4.16.

As for GGAUCUUCUCGAUGUAACAAAAAAGACAAAUCUGCCACAAAGCUUGAGAGUAUCUUCGGAUGCAGAGGCGGCAGCCUUCGGUGGCGCGAUAGCGCUAACGUUCUCAACUAUGACACGCAAAACGCGUGCUCCGUUGAAUGGAGUUUAUCAUG [C14G C51U C96U], the “polymerase ribozyme fitness (log ratio)” value is -3.1. Consider GGAUCUUCUCGAUGUAAUAAGAAAGACAAAUCUGCCACAAAGCUUGAGAGCAUCUUCGGAUGCAGAGGCGGCAGCCUUCGGUGGCCCGAUAGCGCCAACGUUCUUAACUAUGACACGCAAAACGCGUGACCCGUUGAAUGGAGUUUAUCAUG [C14G C18U A21G G86C C105U C129A U130C], for which the “polymerase ribozyme fitness (log ratio)” value was at most -4.2.

For GGAUCUUCUCGAUGUAACAAAAAAGACAAAUCUGCCACAAAGAUUGAGAGCAUCUUCGGAUGCAGAGGCGGCAGCCUUCGGUGGCGCUAUAGCGCCAACGUUCUCAACUUUCACACGCAAAACGCGGGCUCCGUUGAAUGGAGUUUAUCAUG [C14G C43A G88U A110U G112C U127G], the “polymerase ribozyme fitness (log ratio)” value was at most -4.2. As to GGAUCUUCUCGAUGUAAGAAAAAAGACAAAUCUGCCACAAAGCUUGAGAGCAUCUUCGGAUGCAGAGGCGGCAGCCUUCGGGGCCGCGAUAGCGCCAACGUUCUCAACUAUGACACGCAAAACGCGUGCUCCGUUGAAUGGAGUUUAUCAUG [C14G C18G U82G G84C], the “polymerase ribozyme fitness (log ratio)” value is at most -4.2.

With GGAUCUUCUCGAUGUAACAAAAAAGAGAAAUCUGCCACAAAGCUUGAGAGCAUCUUCGGAUGCAGAGGCGGCAGCCUUCGGUGGCGCGAUAGCACCAACGUUCUCAACUAUGACACGCAAAACGCGUGCUCCGUUGAAUGGAGUUUAUCAUG [C14G C27G G94A], the “polymerase ribozyme fitness (log ratio)” value is at most -4.2. Turning to GGAUCUUCUCGAUGUAAUAAAAAAGACAAAUCUGCCACAAAGCUUGAGAGCAUCUUCGGAUGCAGAGGCGGCAGCCUUCGGUGGCGCGAUAGCGCCAACGUUCUCAACUAUGACACGCAAAACGCGUGCUCCGUUGAAUGGAGCUUAUCAUG [C14G C18U U144C], the “polymerase ribozyme fitness (log ratio)” value was -2.22.
